Legend:
[1] = target: cyp C:p77 complex (cyp C-GST fusion protein and 77Kd protein) (Mus musculus, UniProt P30412)
Description: (§1) FIG. 6. […] Control samples were incubated with 10 μg of GST. Experimental samples were incubated with 10 μg of cyp C-GST fusion protein plus the indicated drug concentration.
(§2) 10^7 TCA precipitable counts of labeled lysate were used per reaction. Reaction volumes were brought up to 1 ml in lysis buffer. Each reaction was precleared by incubation with 10 μg of glutathione-s-transferase (GST) and 100 μl of 50% glu-ag solution for 2 hours at 4° C. with gentle agitation. Reactions were spun 5 minutes in a microfuge at 4° C., and the pellets were discarded. To the precleared lysates, 10 μg of cyp C fusion protein was added, along with 30 μl of a 50% solution of glu-ag. Reactions were incubated at 4° with gentle agitation for 3-4 hours, at which time tubes were spun 5 minutes in a microfuge at 4° C., and the supernatants were removed. Glu-ag pellets were washed 4× with 1 ml of cold lysis buffer, being transferred to a fresh tube for the final wash. […], and the pellet was resuspended in 50- 100 μl of SDS-PAGE sample buffer containing β-mercaptoethanol. Samples were boiled 5 minutes and loaded onto 9.5% SDS-PAGE gels. Gels were stained/fixed in methanol: acetic acid: coomassie blue, and destained in methanol: acetic acid.

[2] = tested on: cyp A mRNA in AC 6 cells; assay: Northern analysis of cyp A mRNA in AC 6 cells; assay type: cell-based, murine; details: AC 6 cells (FIG. 3)
Description: Individual bacterial colonies containing phagemid vectors which had undergone two rounds of subtraction were cultured, and plasmid miniprep DNA was prepared from them by the NaOH/SDS, NaAcetate method. cDNA inserts were isolated by digestion of the plasmid DNA with Stu 1 and Hd III followed by low-melt agarose gel electrophoresis. Inserts were visualized by UV light and excised and purified by organic extraction and precipitation for use as templates for ^32 p probe synthesis. Purified inserts were labeled by random priming in the presence of 50 μCi [alpha-32P] dCTP (Amersham) and were purified by chromatography over a Sephadex G-50 column. AC 6MRNA prepared from IL-1 induced and uninduced cultures was electrophoresed on 1.0% formaldehyde-agarose gels using 0.5 μg RNA/lane as described (Sambrook, 1989). RNA was blotted onto nitrocellulose filters and prehybridized and hybridized in a solution containing 50% formamide, 6×SSC, 5×Denhardt's solution, 5 mM NaPO4, 100 ug/ml sheared, denatured salmon sperm DNA, and 50 ug/ml yeast tRNA. Labeled cDNA probe, prepared as described above, was hybridized for 16 hours at 45° C. […], followed by washing in 0.2×SSC plus 0.1% SDS at 65° C. for 30 minutes. Filters were then placed on film for autoradiographic visualization. […]

[3] = target: T1, cyp C:CsA:p55 complex (cyp C-GST fusion protein and 55Kd protein) (Mus musculus, UniProt P30412); assay: Cyp C affinity reactions with 35S labeled cell lysate: 55Kd protein; assay type: binding, murine; details: AC 6 cells, 77Kd and 55Kd proteins (FIG. 5)
T1 construct: A portion of the cyp C cDNA encoding aa 16-212 was cloned into the bacterial expression vector pGEX 2T; made in house; host or cells: E. coli MC1061 (cyp C-GST); 55Kd protein from labelled AC 6 cell lysate
Description: as §1, §2

[4] = tested on: cyp C mRNA in AC 6 cells; assay: Northern analysis of cyp C mRNA in AC 6 cells; assay type: cell-based, murine
Description: Purified inserts were labeled by random priming in the presence of 50 μCi [alpha-32P] dCTP (Amersham) and were purified by chromatography over a Sephadex G-50 column. […] RNA was blotted onto nitrocellulose filters and prehybridized and hybridized in a solution containing 50% formamide, 6×SSC, 5×Denhardt's solution, 5 mM NaPO4, 100 ug/ml sheared, denatured salmon sperm DNA, and 50 ug/ml yeast tRNA. Labeled cDNA probe, prepared as described above, was hybridized for 16 hours at 45° C. for 30 minutes, followed by washing in 0.2×SSC plus 0.1% SDS at 65° C. for 30 minutes. Filters were then placed on film for autoradiographic visualization.
Twenty μg of total RNA from each source was run on a 1.2% agarose formaldehyde gel and blotted onto Genescreen (DuPont) membrane. Filters were hybridized as described above for 18 hours. The final wash conditions were 0.2×SSC, 0.1% SDS at 65° C. […] The autoradiograms presented in the Figure represent exposures of 3 days at -70° C. with an intensifying screen for both the cyp A and the cyp C probes.

[5] = target: cyp C-GST fusion protein (glutathione-s-transferase fused to aa 16-212 of murine cyclophilin C), without CsA (murine)

cyp C:p77 complex (cyp C-GST fusion protein and 77Kd protein), sequence (P30412 with tags, fused parts or gaps limits assumed): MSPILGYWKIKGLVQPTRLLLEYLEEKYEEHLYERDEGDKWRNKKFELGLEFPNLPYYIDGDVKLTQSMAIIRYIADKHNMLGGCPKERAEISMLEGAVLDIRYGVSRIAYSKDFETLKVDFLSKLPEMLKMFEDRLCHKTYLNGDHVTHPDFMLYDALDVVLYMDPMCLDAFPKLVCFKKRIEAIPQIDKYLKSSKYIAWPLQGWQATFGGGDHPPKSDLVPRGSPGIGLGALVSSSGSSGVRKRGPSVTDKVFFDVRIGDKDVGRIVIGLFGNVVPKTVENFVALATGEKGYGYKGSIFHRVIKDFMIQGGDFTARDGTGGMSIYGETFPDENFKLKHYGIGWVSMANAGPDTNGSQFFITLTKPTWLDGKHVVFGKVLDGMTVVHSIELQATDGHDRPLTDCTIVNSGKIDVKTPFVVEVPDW
T1 sequence (P30412 with tags, fused parts or gaps limits assumed): as above

Q: Which “effect on the binding of cyp C to the 77Kd protein” value [1] does the source give for `C=CC[C@@H]1/C=C(\C)C[C@H](C)C[C@H](OC)[C@H]2O[C@@](O)(C(=O)C(=O)N3CCCC[C@H]3C(=O)O[C@H](/C(C)=C/[C@@H]3CC[C@@H](O)[C@H](OC)C3)[C@H](C)[C@@H](O)CC1=O)[C@H](C)C[C@@H]2OC` [FK506] here?
A: no effect

Q: With “IL-1: hematopoietic and inflammatory cytokine; unpurified recombinant human IL-1 alpha used for induction of AC 6 cells” as the compound, how does the “elevation of cyp A mRNA in response to IL-1” value [2] read?
A: elevated approximately three-fold

Q: What about the “effect of IL-1 in the culture media during metabolic labeling on the associating proteins” value [3] of the same compound?
A: no obvious effect

Q: And the “elevation of cyp C mRNA in response to IL-1” value ([4]; AC 6 cells (FIG. 3))?
A: elevated approximately three-fold

Q: And the “induction of cyp C message levels” value ([4]; AC 6 stromal cell line treated with IL-1)?
A: 2-3 fold

Q: With cyclosporin A (peptide) as the compound, how does the CsA concentration that completely inhibits the isomerase activity of cyp C [5] read?
A: 2 µg/mL
